Results published in patent US7642046B2, “Method for monitoring recruitment of proteins to the intracellular domain of a receptor in intact cells” (priority 2001, dated 2010).

Assays:
Format in all cases: cell-based
[1] = target: T1, LTβR (Homo sapiens, UniProt P25942+P36941); assay: Recruitment assay with hybrid receptor (CD40 extracellular domain, LTβR transmembrane and intracellular domain); conditions: 293T cells
T1 construct: cDNA fragments encoding for the transmembrane and cytoplasmic domains of the LTβR, TACI, the p75TNF receptor, CD27; expressed in transfected cells; host or cells: 293T
Description: (§1) The recruitment of TRAF to CD40 can be quantitatively measured using the assay described in example 1. For that purpose, the assay conditions were adjusted in such a way that TRAF expression was in significant excess over the expression of CD40. This was the case when the TRAF expression plasmid was used at a two to three fold excess over the CD40 expression plasmid. The CD40 bound TRAF concentration was measured as described in example 1. A reference extract containing CD40/TRAF complexes served as a standard in each assay. This standard extract consisted of a large pool extract from cells that had been co-transfected with the plasmids encoding CD40/TRAF1, CD40/TRAF2, CD40/TRAF3, CD40/TRAF5 and CD40/TRAF6. The extracts were tested for the presence of CD40/TRAF complexes and the complex concentrations in each extract were arbitrarily defined as 1000 U/ml. The extracts were frozen in small aliquots and kept at −80° C. until further use. By comparing unknown samples to these extracts, it was possible to determine the relative CD40-TRAF complex concentrations in arbitrary units. The necessary normalization for sample-to-sample variations in the CD40 expression was calculated with the following formula: […]
Recruitment of various TRAFs to receptors different to CD40, was tested by the recruitment assay described in example 1 by transforming cells with expression plasmids encoding hybrids receptors comprising the extracellular domain of CD40 and transmembrane and intracellular domain of anyone of the following receptors: BCMA (Madry et al. 1998 and Hatzoglou et al. 2000) the LTβR-receptor (Mosialos et al. 1995, Crowe et al. 1994, Nakano et al. 1996), TACI (von Bulow et al. 1997, Xia et al. 2000) the p75TNFR (Rothe et al. 1994) and the CD27 (Gravestein et al. 1998, Akiba et al. 1998) (for details of constructs see example 7). Measurement of TRAF recruitment to the signalling domains of BCMA the LTβR-receptor TACI the p75TNFR or the CD27 was carried out by co-transfecting 293T cells with a plasmid encoding anyone of the above hybrid receptors together with a plasmid encoding TRAF and measurement of the TRAF/Receptor complex using the ELISA sandwich described in example 1 and the quantitation as described in example 3. The assay with the hybrid receptors is schematically represented in FIG. 4A. The results shown in FIG. 4B indicate that, using the assay monitoring recruitment in intact cells, any TRAF recruiting receptor of the TNF/NGF family can be examined with the same antibody sandwich assay described in example 1 and the amount of TRAF-receptor/CD40 hybrid complex can be monitored as described in example 3. […] Recruitment of TRAF3 to all the receptors tested is similar. […]

[2] = target: T2, CD27 (Homo sapiens, UniProt P25942+P26842); assay: Recruitment assay with hybrid receptor (CD40 extracellular domain, CD27 transmembrane and intracellular domain); conditions: 293T cells
T2 construct: cDNA fragments encoding for the transmembrane and cytoplasmic domains of the LTβR, TACI, the p75TNF receptor, CD27; expressed in transfected cells; host or cells: 293T
Description: as §1

[3] = target: T3, CD40 mutants (Homo sapiens, UniProt P25942, E235A); assay: Recruitment assay in intact cells with CD40 mutants (deletions or point mutations in TRAF binding sites); conditions: E235A, relative to wild type CD40
T3 construct: expressed in transfected cells; host or cells: 293T
Description: The lysates were cleared by centrifugation at 15000 G at 4° C. in a micro-centrifuge, 3 fold serially diluted (with lysis buffer containing 1% bovine serum albumin) and then every diluted sample incubated for 2 hours at room temperature (or overnight) in wells of ELISA microtiter plates coated with a mAb (Ro1) specific to the CD40 extra-cellular domain (Schwabe et al. 1997). For control purposes, instead of the wild type CD40 plasmid, a plasmid encoding a CD40 mutant lacking the entire signaling domain was used for transfection and transient expression (CD401-222, FIG. 1B). Following incubation exhaustive washes were carried out on the microtiter plates to remove any unbound protein [about 10 washing steps with PBS containing 0.05% Tween 20) PBS/Tween)]. To detect bound TRAF1, anti TRAF1 specific antibodies were loaded into the plates, incubated for about 3 hours at room temperature, […] by extensive washes to remove unbound antibody and detecting the bound antibody with an HRP conjugated secondary antibody. All antibodies (except when used as solid phase antibody) were diluted in PBS/Tween containing 1% BSA.
as §1
The quantitative version of the TRAF recruitment assay as described in example 3 was used to compare CD40 and various CD40 mutants with respect to their TRAF recruitment behaviour. TRAF 1, 2, 3, 5 and 6 were examined. […] Additional deletion of the TRAF1/2/3/5 binding motif PXQXT254 at amino acid position 250 to 254 reduced the binding of all 5 TRAFs test to background levels (1-254EA in FIG. 3B). […]

[4] = target: T4, p75TNFR (Homo sapiens, UniProt P20333+P25942); assay: Recruitment assay with hybrid receptor (CD40 extracellular domain, p75TNFR transmembrane and intracellular domain); conditions: 293T cells
T4 construct: cDNA fragments encoding for the transmembrane and cytoplasmic domains of the LTβR, TACI, the p75TNF receptor, CD27; expressed in transfected cells; host or cells: 293T
Description: as §1, with “By comparing unknown samples to these extracts, it was possible to determine the relative CD40-TRAF complex concentrations in arbitrary units.” left out
Recruitment of various TRAFs to receptors different to CD40, was tested by the recruitment assay described in example 1 by transforming cells with expression plasmids encoding hybrids receptors comprising the extracellular domain of CD40 and transmembrane and intracellular domain of anyone of the following receptors: BCMA (Madry et al. 1998 and Hatzoglou et al. 2000) the LTβR-receptor (Mosialos et al. 1995, Crowe et al. 1994, Nakano et al. 1996), TACI (von Bulow et al. 1997, Xia et al. 2000) the p75TNFR (Rothe et al. 1994) and the CD27 (Gravestein et al. 1998, Akiba et al. 1998) (for details of constructs see example 7). Measurement of TRAF recruitment to the signalling domains of BCMA the LTβR-receptor TACI the p75TNFR or the CD27 was carried out by co-transfecting 293T cells with a plasmid encoding anyone of the above hybrid receptors together with a plasmid encoding TRAF and measurement of the TRAF/Receptor complex using the ELISA sandwich described in example 1 and the quantitation as described in example 3. […]

[5] = target: T5, BCMA (Homo sapiens, UniProt P25942+Q02223); assay: Recruitment assay with hybrid receptor (CD40 extracellular domain, BCMA transmembrane and intracellular domain); conditions: 293T cells
T5 construct: transmembrane and intracellular domain of anyone of the following receptors: BCMA; expressed in transfected cells; host or cells: 293T
Description: as §1

[6] = target: T6, TACI (Homo sapiens, UniProt O14836+P25942); assay: Recruitment assay with hybrid receptor (CD40 extracellular domain, TACI transmembrane and intracellular domain); conditions: 293T cells
T6 construct: cDNA fragments encoding for the transmembrane and cytoplasmic domains of the LTβR, TACI, the p75TNF receptor, CD27; expressed in transfected cells; host or cells: 293T
Description: as §1

[7] = target: T7, CD40 (Homo sapiens, UniProt P25942); assay: Recruitment of NIK to CD40 via TRAF2 in 293T cells, anti-CD40 capture ELISA with anti NIK detection
T7 construct: expressed in transfected cells; host or cells: HEK 293T
Description: The assay described in example 1 can be used to measure recruitment of signal proteins, e.g. NIK (a downstream mediator in the NF-κB pathway Malinin et al. 1997) to a cytokine receptor, e.g. CD40 via an adaptor protein e.g. TRAF2. Expression plasmids encoding CD40, TRAF2, NIK (in pcDNA3.1) and myc-tagged IKKα were co-transfected into 293T (at a ratio of 1:1.75:1.75:1.75 respectively). Empty vector was used to equalize the amount of transfected DNA. The transfection was done as described for example 1. Twenty seven hours later the cells were extracted as described in example 1. The lysates were incubated with ELISA plates coated with an anti CD40 mAb (R01, Schwabe et al. 1997). After two hours the plates were washed with PBS/tween and developed with a commercially available rabbit anti NIK antibody (Santa Cruz at 1:100 dilution, SC-6363) and HRP-labeled goat anti rabbit Ig antibody (Pharmingen). The recruitment assay for NIK is schematically represented in FIG. 5A.

T7 sequence (P25942 21-277): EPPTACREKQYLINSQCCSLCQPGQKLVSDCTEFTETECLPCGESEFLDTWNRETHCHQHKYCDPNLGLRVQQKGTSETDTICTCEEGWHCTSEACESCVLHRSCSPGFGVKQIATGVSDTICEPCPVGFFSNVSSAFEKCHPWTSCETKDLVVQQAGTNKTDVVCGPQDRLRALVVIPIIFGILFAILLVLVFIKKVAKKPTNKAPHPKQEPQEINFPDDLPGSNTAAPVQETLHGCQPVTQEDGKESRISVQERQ
T1 sequence (P25942+P36941 fused): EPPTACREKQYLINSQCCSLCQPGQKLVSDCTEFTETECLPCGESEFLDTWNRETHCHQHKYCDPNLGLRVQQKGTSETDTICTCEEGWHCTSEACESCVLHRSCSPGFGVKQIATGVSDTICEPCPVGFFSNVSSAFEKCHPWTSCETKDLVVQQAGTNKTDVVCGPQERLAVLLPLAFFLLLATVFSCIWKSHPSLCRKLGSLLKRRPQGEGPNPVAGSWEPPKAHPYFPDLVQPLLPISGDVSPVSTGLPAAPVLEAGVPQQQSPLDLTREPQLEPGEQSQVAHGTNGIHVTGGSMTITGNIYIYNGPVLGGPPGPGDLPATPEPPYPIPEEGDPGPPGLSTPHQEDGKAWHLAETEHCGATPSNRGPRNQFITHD
T3 sequence (P25942 21-277 E235A): as the sequence (P25942 21-277) above, with E215A counted along it
T4 sequence (P25942+P20333 fused): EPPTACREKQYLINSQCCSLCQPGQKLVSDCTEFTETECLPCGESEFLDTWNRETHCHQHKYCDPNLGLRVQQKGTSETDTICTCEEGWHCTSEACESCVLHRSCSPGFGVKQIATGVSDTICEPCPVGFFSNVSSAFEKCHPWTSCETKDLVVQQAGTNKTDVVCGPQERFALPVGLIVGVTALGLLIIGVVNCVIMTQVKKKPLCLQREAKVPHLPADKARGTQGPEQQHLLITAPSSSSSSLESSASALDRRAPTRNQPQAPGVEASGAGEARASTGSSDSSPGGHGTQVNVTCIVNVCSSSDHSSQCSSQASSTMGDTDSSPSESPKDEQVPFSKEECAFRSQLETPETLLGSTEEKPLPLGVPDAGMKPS
T5 sequence (P25942+Q02223 fused, species assumed): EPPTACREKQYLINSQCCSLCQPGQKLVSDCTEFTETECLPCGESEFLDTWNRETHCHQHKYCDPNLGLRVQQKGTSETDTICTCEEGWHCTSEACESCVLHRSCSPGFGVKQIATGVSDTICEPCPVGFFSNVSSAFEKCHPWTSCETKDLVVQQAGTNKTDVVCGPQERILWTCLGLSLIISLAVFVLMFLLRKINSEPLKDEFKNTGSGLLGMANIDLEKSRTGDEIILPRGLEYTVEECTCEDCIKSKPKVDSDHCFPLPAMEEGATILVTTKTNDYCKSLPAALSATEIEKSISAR
T6 sequence (P25942+O14836 fused, species assumed): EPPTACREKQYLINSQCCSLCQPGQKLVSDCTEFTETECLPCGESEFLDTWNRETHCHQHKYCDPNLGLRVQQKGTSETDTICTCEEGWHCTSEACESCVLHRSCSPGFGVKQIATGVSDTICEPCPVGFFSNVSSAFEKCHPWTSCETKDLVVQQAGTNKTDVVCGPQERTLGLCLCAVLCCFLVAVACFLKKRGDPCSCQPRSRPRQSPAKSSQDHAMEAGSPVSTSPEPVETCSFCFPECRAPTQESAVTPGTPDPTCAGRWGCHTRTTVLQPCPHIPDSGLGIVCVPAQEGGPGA
T2 sequence (P25942+P26842 fused, species assumed): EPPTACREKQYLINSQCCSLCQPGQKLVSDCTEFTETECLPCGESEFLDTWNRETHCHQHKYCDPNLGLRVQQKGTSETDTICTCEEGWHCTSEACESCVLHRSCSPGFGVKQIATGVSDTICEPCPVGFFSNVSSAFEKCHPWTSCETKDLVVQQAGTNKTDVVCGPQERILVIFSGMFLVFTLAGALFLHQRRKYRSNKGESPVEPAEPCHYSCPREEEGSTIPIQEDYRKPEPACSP

Row | Molecule | recruitment to LTβR compared with the other receptors tested [1] | recruitment to CD27 compared with the other receptors tested [2] | recruitment to CD40 mutant E235A [3] | recruitment to p75TNFR compared with the other receptors tested [4] | recruitment to BCMA compared with the other receptors tested [5] | recruitment to TACI compared with the other receptors tested [6] | recruitment to LTβR, folds higher than recruitment to CD40 ([1]; CD40 as relative standard) | recruitment of NIK to CD40 when IKK was co-expressed ([7]; myc-tagged IKKα co-transfected) | recruitment of NIK to CD40, dependence on adaptor ([7]; with or without TRAF2 co-transfection)
1 | TRAF3: TNF receptor associated factor 3, adaptor protein expressed from pcDNA3 (protein, UniProt Q13114 1-568, looked up, full-length, TNF receptor associated factor 3, adaptor protein expressed from pcDNA3) MESSKKMDSPGALQTNPPLKLHTDRSAGTPVFVPEQGGYKEKFVKTVEDKYKCEKCHLVLCSPKQTECGHRFCESCMAALLSSSSPKCTACQESIVKDKVFKDNCCKREILALQIYCRNESRGCAEQLMLGHLLVHLKNDCHFEELPCVRPDCKEKVLRKDLRDHVEKACKYREATCSHCKSQVPMIALQKHEDTDCPCVVVSCPHKCSVQTLLRSELSAHLSECVNAPSTCSFKRYGCVFQGTNQQIKAHEASSAVQHVNLLKEWSNSLEKKVSLLQNESVEKNKSIQSLHNQICSFEIEIERQKEMLRNNESKILHLQRVIDSQAEKLKELDKEIRPFRQNWEEADSMKSSVESLQNRVTELESVDKSAGQVARNTGLLESQLSRHDQMLSVHDIRLADMDLRFQVLETASYNGVLIWKIRDYKRRKQEAVMGKTLSLYSQPFYTGYFGYKMCARVYLNGDGMGKGTHLSLFFVIMRGEYDALLPWPFKQKVTLMLMDQGSSRRHLGDAFKPDPNSSSFKKPTGEMNIASGCPVFVAQTVLENGTYIKDDTIFIKVIVDTSDLPDP | similar | similar | reduced recruitment | similar | similar | similar |  |  | 
2 | TRAF5: TRAF5 adaptor protein, expressed as tagged deletion mutant, amino acids 145 to 557 (protein, UniProt O00463 145-557, looked up, fragment, His tag) REPVLRKDLKEHLSASCQFRKEKCLYCKKDVVVINLQNHEENLCPEYPVFCPNNCAKIILKTEVDEHLAVCPEAEQDCPFKHYGCAVTDKRRNLQQHEHSALREHMRLVLEKNVQLEEQISDLHKSLEQKESKIQQLAETIKKLEKEFKQFAQLFGKNGSFLPNIQVFASHIDKSAWLEAQVHQLLQMVNQQQNKFDLRPLMEAVDTVKQKITLLENNDQRLAVLEEETNKHDTHINIHKAQLSKNEERFKLLEGTCYNGKLIWKVTDYKMKKREAVDGHTVSIFSQSFYTSRCGYRLCARAYLNGDGSGRGSHLSLYFVVMRGEFDSLLQWPFRQRVTLMLLDQSGKKNIMETFKPDPNSSSFKRPDGEMNIASGCPRFVAHSVLENAKNAYIKDDTLFLKVAVDLTDLEDL |  |  | reduced recruitment |  |  |  | about 152 fold |  | 
3 | NIK: kinase, a downstream mediator in the NF-κB pathway, recruited to CD40 via TRAF2 (protein, UniProt Q99558 1-947, looked up) Mitogen-activated protein …: MAVMEMACPGAPGSAVGQQKELPKAKEKTPPLGKKQSSVYKLEAVEKSPVFCGKWEILNDVITKGTAKEGSEAGPAAISIIAQAECENSQEFSPTFSERIFIAGSKQYSQSESLDQIPNNVAHATEGKMARVCWKGKRRSKARKKRKKKSSKSLAHAGVALAKPLPRTPEQESCTIPVQEDESPLGAPYVRNTPQFTKPLKEPGLGQLCFKQLGEGLRPALPRSELHKLISPLQCLNHVWKLHHPQDGGPLPLPTHPFPYSRLPHPFPFHPLQPWKPHPLESFLGKLACVDSQKPLPDPHLSKLACVDSPKPLPGPHLEPSCLSRGAHEKFSVEEYLVHALQGSVSSGQAHSLTSLAKTWAARGSRSREPSPKTEDNEGVLLTEKLKPVDYEYREEVHWATHQLRLGRGSFGEVHRMEDKQTGFQCAVKKVRLEVFRAEELMACAGLTSPRIVPLYGAVREGPWVNIFMELLEGGSLGQLVKEQGCLPEDRALYYLGQALEGLEYLHSRRILHGDVKADNVLLSSDGSHAALCDFGHAVCLQPDGLGKSLLTGDYIPGTETHMAPEVVLGRSCDAKVDVWSSCCMMLHMLNGCHPWTQFFRGPLCLKIASEPPPVREIPPSCAPLTAQAIQEGLRKEPIHRVSAAELGGKVNRALQQVGGLKSPWRGEYKEPRHPPPNQANYHQTLHAQPRELSPRAPGPRPAEETTGRAPKLQPPLPPEPPEPNKSPPLTLSKEESGMWEPLPLSSLEPAPARNPSSPERKATVPEQELQQLEIELFLNSLSQPFSLEEQEQILSCLSIDSLSLSDDSEKNPSKASQSSRDTLSSGVHSWSSQAEARSSSWNMVLARGRPTDTPSYFNGVKVQIQSLNGEHLHIREFHRVKVGDIATGISSQIPAAAFSLVTKDGQPVRYDMEVPDSGIDLQCTLAPDGSFAWSWRVKHGQLENRP |  |  |  |  |  |  |  | clearly improved | TRAF2 dependent
